Data from patent US9333240B2, “Compounds for improving nutritional status, cognition and survival” (YISSUM RESEARCH DEVELOPMENT COMPANY OF THE HEBREW …, priority 2005, dated 2016).
“Also recorded” adds a separate entry of the source.

How the values were obtained:
[1] = system: mice; experiment: Eight-arm maze in TAA model of hepatic encephalopathy; assay type: in vivo; conditions: TAA treated mice, 1 mg/kg Leptin daily for 5 days
Method: FIG. 11. […] Mice were treated with TAA, then 1 mg/kg Leptin was administered daily for 5 days. Cognitive function was evaluated in the eight arm maze.
The animals were placed in an eight-arm maze, which is a scaled-down version of that developed for rats (Randt et al, (1971) Science 172, 489-499; Ziv et al (1994) Neuroscience Lett, 170, 136-140). We used water deprivation achieved by limiting water consumption overnight and a reward of 50 μl of water presented at the end of each arm. The mice were tested until they made entries into all eight arms or until they completed 24 entries, whichever came first. […] Maze performance was calculated each day for five consecutive days. Results were presented as area under the curve (AUC) utilizing the formula: (day 2+day 3+day 4+day 5)−4*(day 1).

[2] = system: Cultured cardiomyocytes; experiment: Cardiomyocyte viability after glucose deprivation (WST); assay type: cell-based; conditions: glucose deprivation for 1, 3, 6 h
Method: Cultured cardiomyocytes were exposed to glucose deprivation for 1, 3, 6 h and were treated with Leptin as described above. Cell viability was analyzed by WST.

[3] = system: mice; experiment: Neurological score in TAA model of hepatic encephalopathy; assay type: in vivo; conditions: TAA treated mice, Leptin daily for 5 days
Method: Mice were treated with TAA, then 1 mk/kg Leptin was administered daily for 5 days and neurological score was evaluated

[4] = system: Bcl-2, Bax, PARP; experiment: Hippocampal apoptosis proteins by RT-PCR and immunoblotting; assay type: in vivo, mice; conditions: leptin 1 mg/kg, DR to 40%, immunoblotting
Method: Total hippocampal RNA was extracted using […] reagent according to the manufacturer's instructions and reverse transcribed. Primers specific for OBRlong were […] NO: 1) and […] NO: 6), for […] NO: 2), and […] NO: 7), for BAX […] NO: 3) and […] NO: 8) for Bcl-2 […] NO: 4) and […] NO: 9) and for actin […] NO: 5) and […] NO: 10). […] Total hippocampal Protein was extracted using […] reagent. Aliquots of the clarified lysates containing […] were denatured in Laemmli sample buffer (6% SDS 30%, glycerol, 0.02% bromophenol blue, 200 mM Tris-HCl (pH 6.8), and 250 mM-mercaptoethanol, at 95° C. for 5 min. The samples were resolved by SDS-PAGE (10% acrylamide), and blotted onto nitrocellulose membrane. Non-specific binding in a Western blot analysis was prevented by immersing the membranes in blocking buffer (5% nonfat dry milk in Tris-buffer saline-Tween 20 (TBS-T)), for 2 h at room temperature. The membranes were then exposed to the indicated antibodies diluted 1:1000 for 1 h at room temperature. AMPK, phospho-AMPK and PARP were obtained from Cell Signaling. Bax, bcl-2 and actin were from Santa Cruz Biotechnology Inc. (Santa Cruz, Calif.). The blots were rinsed in TBS-T and then incubated with horseradish peroxidase-conjugated goat anti-mouse antibodies 1:10,000 for 1 h at room temperature. Antibody-antigen complexes were visualized by detecting enhanced chemiluminescence with X-ray film.

[5] = system: mice; experiment: Eight-arm maze, mice ad libitum or diet restricted; assay type: in vivo; conditions: 1 mg/kg leptin daily for 5 days
Method: Control mice received food ad-libitum. Diet-restricted mice received a diet of 57 kCal/week/mouse (2.16 g/day/mouse) as 60% of the requirement, or 38 kCal/week/mouse (1.44 g/day/mouse) for 40%/DR. DR was carried out for 10 days. Behavioral test was performed using the eight-arm spatial maze during the second week of experiment. […] Mice were sacrificed by decapitation after the behavioral tests and the hippocampi were frozen at −70° C. The animals were placed in an eight-arm maze, which is a scaled-down version of that developed for rats (Randt et al, (1971) Science 172, 489-499; Ziv et al (1994) Neuroscience Lett, 170, 136-140). […] The mice were tested until they made entries into all eight arms or until they completed 24 entries, whichever came first. […] Maze performance was calculated each day for five consecutive days. Results were presented as area under the curve (AUC) utilizing the formula: (day 2+day 3+day 4+day 5)−4*(day 1).

[6] = system: mice; experiment: Morris Water Maze in diet-restricted mice; assay type: in vivo; conditions: leptin 1 mg/kg daily; data not shown
Method: The effects of leptin administration (restoration) on neural function in diet-restricted mice was investigated. Mice were assigned at random to 4 groups. The groups were kept under ad libitum or DR to 40% for 10 days and injected daily with either 1 mg/kg leptin or saline for 5 days during the second week. […] Cognitive performance improvement was also observed in the Morris Water Maze (data not shown). Then the effects on the concentrations of NE and dopamine in the hippocampus were evaluated. […] To elucidate the cellular mechanisms involved in leptin effects, proteins associated with apoptosis were determined by immunoblotting. Leptin induced up-regulation of bcl-2 while reducing Bax levels. […] The anti-apoptotic effect of leptin was further confirmed by detection of activated caspase-3 expression as ?of apoptotic cell death. Activated caspase-3 could not be detected in the hippocampi of control animals.

[7] = system: mice; experiment: Survival of mice under severe energy restriction (40% DR); assay type: in vivo; conditions: for survival time: Kaplan Meir log rank p<0.05
Method: Severe energy restriction leads to deterioration of neural function and eventually death. Since leptin can improve cognitive function following DR to 40% and prevents neural apoptosis, it was investigated whether it may also promote mice survival under these same severe conditions. In the first experiment, mice were fed ad libitum or DR to 40% for 12 days and injected daily with 1 mg/kg leptin or saline during the second week (5 days). 95% of the mice survived with leptin treatment compared to 65% in the control group (p<0.05). In a second experiment, mini-osmotic pumps delivering 0.05 mg/kg/h leptin or saline continuously for 16 days were implanted in mice under 40% DR (12 animals in each group). […] The 50% survival in the treated group increased from 9 to 14 days. (FIG. 5).

[8] = system: AKT; experiment: AKT phosphorylation in glucose-deprived cardiomyocytes; assay type: cell-based; conditions: glucose deprivation for 1, 3, 6 h
Method: Cultured cardiomyocytes exposed to glucose deprivation for 1, 3, 6 h were treated with Leptin. Stat-3 phosphorylation (A) and AKT phosphorylation (measure for cell survival and cardioroprotection) were measured by protein analysis.

[9] = system: Cultured cardiomyocytes; experiment: Apoptosis of glucose-deprived cardiomyocytes by FACS; assay type: cell-based; conditions: glucose deprived condition for 1, 2, 6 h, 1 ug/ml Leptin
Method: In another experiment cultured cardiomyocytes exposed to glucose deprived condition for 1, 2, 6 h were treated with 1 ug/ml Leptin. Apoptotic cell death was detected by FACS analysis.

[10] = system: mice; experiment: Mortality in TAA model of hepatic encephalopathy; assay type: in vivo; conditions: mice ad libitum or DR to 40%, with or without leptin
Method: Mice were maintained on Ad Librium or DR to 40% conditions. TAA was administered with or without leptin. Treated mortalilty rate was recorded everyday.

B1: leptin: Murine leptin provided by A. Gertler; adipokine hormone, full leptin is a 146 amino acid sequence (protein, UniProt P41160 22-167, looked up)
Leptin: VPIQKVQDDTKTLIKTIVTRINDISHTQSVSAKQRVTGLDFIPGLHPILSLSKMDQTLAVYQQVLTSLPSQNVLQIANDLENLRDLLHLLAFSKSCSLPQTSGLQKPESLDGVLEASLYSTEVVALSRLQGSLQDILQQLDVSPEC
B1 was tested, and the “cognitive function in the eight arm maze” value [1] was “reversed impaired cognitive function”, the “cell viability (WST)” value [2] was “increased significantly the viability; also recorded: induces survival” and the neurological score [3] was “reversed impaired neurological score”. The Bax levels [4] was “reducing”, the PARP cleavage [4] was “reduction in the cleaved subunit” and the bcl-2 level [4] was “up-regulation”. For the same molecule, the eight-arm maze performance ([5]; DR to 40%) was “reversed the impaired eight-arm maze performance”, the eight-arm maze performance ([5]; ad libitum control group) was “not affected” and the “cognitive performance in the Morris Water Maze” value [6] was “improvement”. The 50% survival ([7]; 40% DR, mini-osmotic pump 0.05 mg/kg/h leptin for 16 days, 9 days with saline) was 14 days, the survival time ([7]; 40% DR, mini-osmotic pump 0.05 mg/kg/h leptin for 16 days) was “survived significantly longer” and the survival time ([7]; 40% DR, mini-osmotic pump 0.05 mg/kg/h leptin for 16 days, listed as Leptin) was “increases survival”. The mice survived ([7]; DR to 40% for 12 days, 1 mg/kg leptin daily during second week (5 days), 65% in control group, p<0.05) was 95%, the “cell survival as measured by AKT phosphorylation” value [8] was “improved the cell survival” and the “apoptotic cell death (FACS)” value [9] was “reduced apoptotic death”. For the same molecule, the “apoptotic cell death (FACS)” value ([9]; listed as Leptin) was “decreased apoptosis”, the mortality [10] was “decreases mortality” and the mortality ([10]; listed as Leptin) was “decreased mortality”.
